Results from patent US20070196371A1 (ZymoGenetics, published 2007).

T1: mouse IL-17RCx1, on transfected cells (mouse, UniProt Q8K4C2 22-698)
T1 construct: also called murine IL-17RCx1; IL-17RCx1 (mouse)
T1 sequence: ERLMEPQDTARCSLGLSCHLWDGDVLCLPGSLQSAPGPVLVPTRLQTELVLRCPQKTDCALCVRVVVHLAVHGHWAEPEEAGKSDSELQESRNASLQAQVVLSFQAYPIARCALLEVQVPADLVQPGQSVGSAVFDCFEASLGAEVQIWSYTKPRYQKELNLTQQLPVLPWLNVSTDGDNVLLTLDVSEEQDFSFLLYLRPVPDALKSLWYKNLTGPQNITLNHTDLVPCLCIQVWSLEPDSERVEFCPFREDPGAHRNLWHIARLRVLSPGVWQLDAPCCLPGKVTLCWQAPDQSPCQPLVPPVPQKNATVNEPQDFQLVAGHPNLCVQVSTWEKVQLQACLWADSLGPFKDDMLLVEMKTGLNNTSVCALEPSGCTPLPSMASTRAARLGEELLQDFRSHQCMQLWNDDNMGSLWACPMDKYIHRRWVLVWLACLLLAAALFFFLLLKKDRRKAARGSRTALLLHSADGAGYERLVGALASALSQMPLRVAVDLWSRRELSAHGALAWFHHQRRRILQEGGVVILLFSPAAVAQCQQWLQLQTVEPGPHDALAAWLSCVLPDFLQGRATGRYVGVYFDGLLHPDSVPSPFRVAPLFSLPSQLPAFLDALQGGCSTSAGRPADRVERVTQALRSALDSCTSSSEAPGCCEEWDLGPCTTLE

T2: human IL-17RCx4, on transfected 293T cells (human, UniProt Q8NAC3 21-791)
T2 construct: Splice variant that includes exons 7, 8 and 12
T2 sequence: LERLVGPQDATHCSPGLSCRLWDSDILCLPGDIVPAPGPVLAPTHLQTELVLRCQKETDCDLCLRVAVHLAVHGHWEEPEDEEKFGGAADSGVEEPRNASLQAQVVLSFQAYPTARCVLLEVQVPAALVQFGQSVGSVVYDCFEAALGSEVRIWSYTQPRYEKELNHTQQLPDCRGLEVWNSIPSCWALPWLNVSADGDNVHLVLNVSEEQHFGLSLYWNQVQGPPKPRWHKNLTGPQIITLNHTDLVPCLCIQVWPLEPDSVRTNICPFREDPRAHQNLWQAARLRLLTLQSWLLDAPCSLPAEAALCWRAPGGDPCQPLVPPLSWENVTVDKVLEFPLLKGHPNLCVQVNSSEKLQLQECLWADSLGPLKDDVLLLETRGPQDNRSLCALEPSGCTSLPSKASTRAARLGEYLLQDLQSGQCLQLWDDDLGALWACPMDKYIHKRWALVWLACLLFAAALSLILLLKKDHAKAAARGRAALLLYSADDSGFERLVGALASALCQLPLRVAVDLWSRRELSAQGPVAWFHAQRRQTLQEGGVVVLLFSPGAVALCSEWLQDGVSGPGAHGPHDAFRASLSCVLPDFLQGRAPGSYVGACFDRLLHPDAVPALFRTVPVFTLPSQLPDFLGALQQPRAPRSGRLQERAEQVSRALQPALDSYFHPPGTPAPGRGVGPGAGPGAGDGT

T3: human IL-17RC (IL-17RCx1), full length on transfected cells (human, UniProt Q8NAC3 21-791)
T3 construct: Expressed on BHK, 293T or nih3t3/kz142.8 cells; also called hIL-17RC; hIL-17RCX1
T3 sequence: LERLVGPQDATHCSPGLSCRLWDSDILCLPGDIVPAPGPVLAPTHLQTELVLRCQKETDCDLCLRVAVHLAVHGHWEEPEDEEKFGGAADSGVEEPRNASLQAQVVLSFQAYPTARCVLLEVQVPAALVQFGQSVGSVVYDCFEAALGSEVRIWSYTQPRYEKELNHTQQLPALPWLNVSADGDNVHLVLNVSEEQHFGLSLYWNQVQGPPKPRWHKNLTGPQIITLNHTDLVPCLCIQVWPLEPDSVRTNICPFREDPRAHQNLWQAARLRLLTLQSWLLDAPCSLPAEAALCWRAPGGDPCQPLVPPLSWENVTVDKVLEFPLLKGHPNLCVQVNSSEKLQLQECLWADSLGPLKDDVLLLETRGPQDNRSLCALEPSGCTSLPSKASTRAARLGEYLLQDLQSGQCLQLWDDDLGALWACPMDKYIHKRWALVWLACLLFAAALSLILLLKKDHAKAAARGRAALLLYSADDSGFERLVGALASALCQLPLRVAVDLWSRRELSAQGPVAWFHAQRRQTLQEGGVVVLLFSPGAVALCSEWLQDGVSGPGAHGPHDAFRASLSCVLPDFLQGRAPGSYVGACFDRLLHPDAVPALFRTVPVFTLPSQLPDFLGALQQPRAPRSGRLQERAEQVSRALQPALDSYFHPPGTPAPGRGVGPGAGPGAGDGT

T4: human IL-17 receptor (IL-17R), on transfected cells (human, UniProt Q96F46 33-320)
T4 sequence: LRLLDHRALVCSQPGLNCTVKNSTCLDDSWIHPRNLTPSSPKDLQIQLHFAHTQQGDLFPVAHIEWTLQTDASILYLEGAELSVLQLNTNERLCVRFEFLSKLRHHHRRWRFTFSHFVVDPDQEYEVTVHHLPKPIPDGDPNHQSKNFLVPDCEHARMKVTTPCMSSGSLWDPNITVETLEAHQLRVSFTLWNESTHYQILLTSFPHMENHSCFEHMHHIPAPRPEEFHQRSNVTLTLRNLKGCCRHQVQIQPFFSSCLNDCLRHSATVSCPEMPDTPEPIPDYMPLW


Key:
[1] = biological target: T1, mouse IL-17RCx1, on transfected cells; test: FACS, biotinylated cytokine on transfected cells; (-) = no significant change in fluorescence
[2] = biological target: T2, human IL-17RCx4, on transfected 293T …; test: FACS, biotinylated cytokine on transiently transfected 293T cells; (-) = no significant change in fluorescence
Text: (§1) Those chosen for this analysis also differed in their inclusion or exclusion of exon 7 and exon 12. These variants were designated human IL-17RCx1, IL-17RCx4, IL-17RCx2, and IL-17RCx7 and these are also illustrated in Table 6 below.

[3] = biological target: T3, human IL-17RC (IL-17RCx1), full length …; test: as above
Text: as §1

[4] = biological target: T3, human IL-17RC (IL-17RCx1), full length …; test: cell-based or functional assay
[5] = biological target: T3, human IL-17RC (IL-17RCx1), full length …; test: radioligand competition, 100x molar cold competitor, BHK hIL-17RC cells
Description: (§2) Cold competitors were added in 100 fold molar excess. […] Wells were incubated on ice for 1-hour followed by two washes with PBS (Invitrogen 20012-027) and one wash with a high salt solution (1.5M NaCL, 50 mM HEPES pH 7.4). Wells were extracted with 500 ul of 0.8M NaOH for 30 min. at room temperature and counts per minute were measured in a gamma counter (Packard Cobra II A5005).

[6] = biological target: T3, human IL-17RC (IL-17RCx1), full length …; test: saturation radioligand binding on BHK hIL-17RC cells, experiment 1; high affinity site of two-site fit
Description: as §2
(§3) Transfected BHK cells were plated into 24-well dishes as in one. […] Separately, 100 fold molar excess of cold ligand was added at each dilution point. Cells were washed, extracted and counted as in one. Specific counts per minute were plotted against concentration of radiolabeled ligand added by subtracting the 100 fold excess counts from the uncompleted counts at each dilution point. These normalized data were plotted to generate saturation binding curves for each combination of radiolabeled ligand and transfected BHK cells.

[7] = biological target: T1, mouse IL-17RCx1, on transfected cells; test: FACS, biotinylated cytokine on transfected cells; (+) = significant increase in fluorescence
[8] = biological target: T3, human IL-17RC (IL-17RCx1), full length …; test: saturation radioligand binding on BHK hIL-17RC cells, experiment 3; high affinity site of two-site fit
Description: as §2, §3

[9] = biological target: T4, human IL-17 receptor (IL-17R), on …; test: cell-based or functional assay
[10] = biological target: T3, human IL-17RC (IL-17RCx1), full length …; test: saturation radioligand binding on BHK hIL-17RC cells, experiment 2; high affinity site of two-site fit
Description: as §2, §3

[11] = biological target: T2, human IL-17RCx4, on transfected 293T …; test: FACS, biotinylated cytokine on transiently transfected 293T cells; (+) = significant increase in fluorescence

Binder	binding result [1]	binding result [2]	binding result [3]	EC50, ap1/nfkb luciferase in nih3t3/kz142.8/hcytor14x1 pool [4] [ng/mL]	fold reduction of 125I IL-17A binding [5] [fold]	fold reduction of 125I IL-17F binding [5] [fold]	Kd [6] [nM]	binding result [7]	Kd [8] [nM]	EC50, ap1/nfkb luciferase in hIL-17RA recombinant line [9] [ng/mL]	EC50, ap1/nfkb luciferase in hIL-17RCX1 recombinant line [4] [ng/mL]	fold more potent EC50 in the recombinant line vs the parental line [4] [fold]	Kd [10] [nM]	binding result [11]
mouse IL-17A (ligand, biotinylated in Example 31, also called murine IL-17A; mIL-17A) AAIIPQSSACPNTEAKDFLQNVKVNLKVFNSLGAKVSSRRPSDYLNRSTSPWTLHRNEDPDRYPSVIWEAQCRHQRCVNAEGKLDHHMNSVLIQQEILVLKREPESCPFTFRVEKMLVGVGCTCVASIVRQAA	no binding	no binding	no binding	~4	–	–	–	–	–	–	–	–	–	–
human IL-17F (ligand, biotinylated (flow cytometry) or 125I-radiolabeled by the iodobead method (radioligand assays); unlabeled as cold competitor; expressed from cDNA in COS cells in the secretion trap, also called huIL-17F; hIL-17F) RKIPKVGHTFFQKPESCPPVPGGSMKLDIGIINENQRVSMSRNIESRSTSPWNYTVTWDPNRYPSEVVQAQCRNLGCINAQGKEDISMNSVPIQQETLVVRRKHQGCSVSFQLEKVLVTVGCTCVTPVIHHVQ	–	–	–	–	~7	~5	0.05	binds	0.08	12.4	0.61	17	0.06	–
mouse IL-17F (ligand, biotinylated in Example 31, also called murine IL-17F; MuIL-17F) RKNPKAGVPALQKAGNCPPLEDNTVRVDIRIFNQNQGISVPREFQNRSSSPWDYNITRDPHRFPSEIAEAQCRHSGCINAQGQEDSTMNSVAIQQEILVLRREPQGCSNSFRLEKMLLKVGCTCVKPIVHQAA	no binding	–	no binding	–	–	–	–	–	–	–	–	–	–	binds
